Results: patent publication US11932673

Key:
trypsin [1] = assay: Fab TRF, 0.6 ug/mL Fab
trypsin [2] = assay: Fab TRF, 2.4 ug/mL Fab
trypsin [3] = assay: Fab TRF, 10 ug/mL Fab
trypsin [4] = assay: monoclonal phage TRF
β-galactosidase = assay: monoclonal phage TRF
β-galactosidase, sequence (P00722 2-1024): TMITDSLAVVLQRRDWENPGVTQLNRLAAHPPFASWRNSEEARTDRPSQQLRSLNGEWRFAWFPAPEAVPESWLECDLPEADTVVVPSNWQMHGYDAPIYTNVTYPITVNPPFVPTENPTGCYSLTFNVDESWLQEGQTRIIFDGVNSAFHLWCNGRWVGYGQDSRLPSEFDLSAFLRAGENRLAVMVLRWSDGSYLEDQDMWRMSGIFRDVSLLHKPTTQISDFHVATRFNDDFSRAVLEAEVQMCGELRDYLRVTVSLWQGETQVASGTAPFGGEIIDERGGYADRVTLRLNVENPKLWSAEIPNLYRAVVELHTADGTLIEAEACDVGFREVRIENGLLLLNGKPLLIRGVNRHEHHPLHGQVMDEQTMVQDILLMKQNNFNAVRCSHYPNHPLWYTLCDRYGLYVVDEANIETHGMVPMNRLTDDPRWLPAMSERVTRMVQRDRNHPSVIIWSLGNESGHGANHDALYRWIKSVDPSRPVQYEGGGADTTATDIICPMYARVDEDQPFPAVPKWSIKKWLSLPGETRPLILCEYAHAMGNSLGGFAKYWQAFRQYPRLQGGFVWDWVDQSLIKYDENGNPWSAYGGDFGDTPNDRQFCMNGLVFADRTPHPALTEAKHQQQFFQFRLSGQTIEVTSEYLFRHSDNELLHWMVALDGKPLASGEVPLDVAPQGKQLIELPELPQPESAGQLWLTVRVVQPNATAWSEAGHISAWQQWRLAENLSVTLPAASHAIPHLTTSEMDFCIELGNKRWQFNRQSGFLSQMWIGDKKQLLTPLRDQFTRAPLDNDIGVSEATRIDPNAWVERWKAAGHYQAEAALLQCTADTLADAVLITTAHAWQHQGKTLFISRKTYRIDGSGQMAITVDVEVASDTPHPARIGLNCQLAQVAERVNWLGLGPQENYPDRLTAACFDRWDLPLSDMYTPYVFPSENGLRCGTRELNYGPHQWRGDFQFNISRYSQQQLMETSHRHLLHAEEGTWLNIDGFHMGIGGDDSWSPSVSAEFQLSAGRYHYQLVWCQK

Row | Binder | TRF signal (trypsin [1]) | TRF signal (trypsin [2]) | TRF signal (trypsin [3]) | Tryspin binding signal (FU) (trypsin [4]) | TRF signal (β-galactosidase)
1 | KB_A06 (scFv, V domains shown) VH: EVQLVESGGGLVRPGGSLRLSCAASGFTFSSYAMSWVRQAPGKGLEWVSAISGSGGSTYYADSVKGRFTISRDNTKNSLYLQMTSLRADDTAFYYCVKDFGPGYGTGWFDYWGPGTLVTVSS VL: AVNWYQQLPGKAPKLLIYAAVRCPRILMRCKQDSDCLAGCVCGPNGFCGTPSGIPERFSGSIDRSTNSASLTISGLKTEDEADYYCQSYDSSNLNWVFGGGTKLTVLG | 108000 | 212000 | 242000 | 24400 FU | –
2 | KB_A12_B-gal_H03 (scFv, V domains shown) VH: EVQLVESGGGLVRPGGSLRLSCAASGFTFSSYAMSWVRQAPGKGLEWVSAISGSGGSTYYADSVKGRFTISRDNTKNSLYLQMTSLRADDTAFYYCVKDFGPGYGTGWFDYWGPGTLVTVSS VL: AVNWYQQLPGKAPKLLIYAAGRCNQTMSIRRPCKQDSDCLAGCVCGPNGFCGANSGVSDRFSAAKSGTSASLAINGLRSEDEADYYCAAWDDSLNGYVFGTGTKLTVLG | – | – | – | – | 518000
3 | KB_B02 (scFv, V domains shown) VH: EVQLVESGGGLVRPGGSLRLSCAASGFTFSSYAMSWVRQAPGKGLEWVSAISGSGGSTYYADSVKGRFTISRDNTKNSLYLQMTSLRADDTAFYYCVKDFGPGYGTGWFDYWGPGTLVTVSS VL: AVNWYQQLPGKAPKLLIYAAVGCPRILMRCKQDSDCLAGCVCGPNGFCGTGSGIPERFSGSKSGNTASLTISGLQAEDEGDYYCAAWDDSLSGPVFGGGTKLTVLG | 2340 | 15900 | 56600 | 116000 FU | –
4 | KB_A12_B-gal_H07 (scFv, V domains shown) VH: EVQLVESGGGLVRPGGSLRLSCAASGFTFSSYAMSWVRQAPGKGLEWVSAISGSGGSTYYADSVKGRFTISRDNTKNSLYLQMTSLRADDTAFYYCVKDFGPGYGTGWFDYWGPGTLVTVSS VL: AVNWYQQLPGKAPKLLIYAAGRCTQTALIRRRCKQDSDCLAGCVCGPNGFCGANSGVSDRFSAAKSGTSASLAINGLRSEDEADYYCAAWDDSLNGYVFGTGTKLTVLG | – | – | – | – | 62000
5 | KB_B01 (scFv, V domains shown) VH: EVQLVESGGGLVRPGGSLRLSCAASGFTFSSYAMSWVRQAPGKGLEWVSAISGSGGSTYYADSVKGRFTISRDNTKNSLYLQMTSLRADDTAFYYCVKDFGPGYGTGWFDYWGPGTLVTVSS VL: AVNWYQQLPGKAPKLLIYAAAGCPRILMRCKQDSDCLAGCVCGPNGFCGTRSGVSDRFSGSKSGTSASLAISGLRSEDEADYYCAAWDDSLRAYVFGTGTKLTVLG | 54800 | 153000 | 257000 | 57700 FU | –
6 | KB_A09 (scFv, V domains shown) VH: EVQLVESGGGLVRPGGSLRLSCAASGFTFSSYAMSWVRQAPGKGLEWVSAISGSGGSTYYADSVKGRFTISRDNTKNSLYLQMTSLRADDTAFYYCVKDFGPGYGTGWFDYWGPGTLVTVSS VL: AVNWYQQLPGKAPKLLIYAAERCPRILMRCKQDSDCLAGCVCGPNGFCGTPSGVPDRFSGSIDTFSNSASLTISGLKTEDEADYYCQSYDSSHHWVFGGGTKLTVLG | 21000 | 84100 | 161000 | 57700 FU | –
7 | KB_C08 (scFv, V domains shown) VH: EVQLVESGGGLVRPGGSLRLSCAASGFTFSSYAMSWVRQAPGKGLEWVSAISGSGGSTYYADSVKGRFTISRDNTKNSLYLQMTSLRADDTAFYYCVKDFGPGYGTGWFDYWGPGTLVTVSS VL: AVNWYQQLPGKAPKLLIYAAAVCPRILMRCKQDSDCLAGCVCGPNGFCGTRSGIPERFSGSKSGTSAFLAISGLRSEDEADYYCAAWDDSLSGVVFGGGTKLTVLG | 51100 | 131000 | 183000 | 76800 FU | –
8 | KB_A12_B-gal_F02 (scFv, V domains shown) VH: EVQLVESGGGLVRPGGSLRLSCAASGFTFSSYAMSWVRQAPGKGLEWVSAISGSGGSTYYADSVKGRFTISRDNTKNSLYLQMTSLRADDTAFYYCVKDFGPGYGTGWFDYWGPGTLVTVSS VL: AVNWYQQLPGKAPKLLIYAAGRCRTTSTIRRRCKQDSDCLAGCVCGPNGFCGANSGVSDRFSAAKSGTSASLAINGLRSEDEADYYCAAWDDSLNGYVFGTGTKLTVLG | – | – | – | – | 476000
9 | KB_A12_B-gal_F03 (scFv, V domains shown) VH: EVQLVESGGGLVRPGGSLRLSCAASGFTFSSYAMSWVRQAPGKGLEWVSAISGSGGSTYYADSVKGRFTISRDNTKNSLYLQMTSLRADDTAFYYCVKDFGPGYGTGWFDYWGPGTLVTVSS VL: AVNWYQQLPGKAPKLLIYAAGRCLATTSIRRHCKQDSDCLAGCVCGPNGFCGANSGVSDRFSAAKSGTSASLAINGLRSEDEADYYCAAWDDSLNGYVFGTGTKLTVLG | – | – | – | – | 289000
10 | KB_C09 (scFv, V domains shown) VH: EVQLVESGGGLVRPGGSLRLSCAASGFTFSSYAMSWVRQAPGKGLEWVSAISGSGGSTYYADSVKGRFTISRDNTKNSLYLQMTSLRADDTAFYYCVKDFGPGYGTGWFDYWGPGTLVTVSS VL: AVNWYQQLPGKAPKLLIYAAGRCPRILMRCKQDSDCLAGCVCGPNGFCGGGSGVPDRFSGSIDSSSNSASLTISGLRAEDEADYYCQSYDSSNHWVFGGGTKLTVLG | 46800 | 205000 | 289000 | 89400 FU | –
11 | KB_C10 (scFv, V domains shown) VH: EVQLVESGGGLVRPGGSLRLSCAASGFTFSSYAMSWVRQAPGKGLEWVSAISGSGGSTYYADSVKGRFTISRDNTKNSLYLQMTSLRADDTAFYYCVKDFGPGYGTGWFDYWGPGTLVTVSS VL: AVNWYQQLPGKAPKLLIYAAGPCPRILMRCKQDSDCLAGCVCGPNGFCGADSGVSDRFSGSKSGTSASLAITGLQAEDEGDYYCAAWDDSLNGLVFGGGTKVTVLG | 41700 | 146000 | 238000 | 119000 FU | –
12 | KB_A10 (scFv, V domains shown) VH: EVQLVESGGGLVRPGGSLRLSCAASGFTFSSYAMSWVRQAPGKGLEWVSAISGSGGSTYYADSVKGRFTISRDNTKNSLYLQMTSLRADDTAFYYCVKDFGPGYGTGWFDYWGPGTLVTVSS VL: AVNWYQQLPGKAPKLLIYAAGGCPRILMRCKQDSDCLAGCVCGPNGFCGSNSGVPDRFSGSKSGNTASLTISGLQSEDEADYYCAAWDDSLSGVVFGGGTQLTVLG | 14600 | 71900 | 68700 | 38800 FU | –
13 | KB_A12_B-gal_G05 (scFv, V domains shown) VH: EVQLVESGGGLVRPGGSLRLSCAASGFTFSSYAMSWVRQAPGKGLEWVSAISGSGGSTYYADSVKGRFTISRDNTKNSLYLQMTSLRADDTAFYYCVKDFGPGYGTGWFDYWGPGTLVTVSS VL: AVNWYQQLPGKAPKLLIYAAGRCLDTVNLRRRCKQDSDCLAGCVCGPNGFCGANSGVSDRFSAAKSGTSASLAINGLRSEDEADYYCAAWDDSLNGYVFGTGTKLTVLG | – | – | – | – | 529000
14 | KB_A11 (scFv, V domains shown) VH: EVQLVESGGGLVRPGGSLRLSCAASGFTFSSYAMSWVRQAPGKGLEWVSAISGSGGSTYYADSVKGRFTISRDNTKNSLYLQMTSLRADDTAFYYCVKDFGPGYGTGWFDYWGPGTLVTVSS VL: YLNWYQQKPGKAPKLLIYAAEICPRILMRCKQDSDCLAGCVCGPNGFCGPSSGIPARFSGSGYGTDFTLTINNIESEDAAYYFCLQHDNFPYTFGQGTKVEIKR | 48900 | 141000 | 212000 | 16400 FU | –
15 | KB_A12_B-gal_F11 (scFv, V domains shown) VH: EVQLVESGGGLVRPGGSLRLSCAASGFTFSSYAMSWVRQAPGKGLEWVSAISGSGGSTYYADSVKGRFTISRDNTKNSLYLQMTSLRADDTAFYYCVKDFGPGYGTGWFDYWGPGTLVTVSS VL: AVNWYQQLPGKAPKLLIYAAGRCHETAQIRRRCKQDSDCLAGCVCGPNGFCGANSGVSDRFSAAKSGTSASLAINGLRSEDEADYYCAAWDDSLNGYVFGTGTKLTVLG | – | – | – | – | 531000
16 | KB_A12_B-gal_F09 (scFv, V domains shown) VH: EVQLVESGGGLVRPGGSLRLSCAASGFTFSSYAMSWVRQAPGKGLEWVSAISGSGGSTYYADSVKGRFTISRDNTKNSLYLQMTSLRADDTAFYYCVKDFGPGYGTGWFDYWGPGTLVTVSS VL: AVNWYQQLPGKAPKLLIYAAGRCIATSHIRRHCKQDSDCLAGCVCGPNGFCGANSGVSDRFSAAKSGTSASLAINGLRSEDEADYYCAAWDDSLNGYVFGTGTKLTVLG | – | – | – | – | 258000
17 | KB_A12_B-gal_E05 (scFv, V domains shown) VH: EVQLVESGGGLVRPGGSLRLSCAASGFTFSSYAMSWVRQAPGKGLEWVSAISGSGGSTYYADSVKGRFTISRDNTKNSLYLQMTSLRADDTAFYYCVKDFGPGYGTGWFDYWGPGTLVTVSS VL: AVNWYQQLPGKAPKLLIYAAGRCRETSSLRRPCKQDSDCLAGCVCGPNGFCGANSGVSDRFSAAKSGTSASLAINGLRSEDEADYYCAAWDDSLNGYVFGTGTKLTVLG | – | – | – | – | 312000
18 | KB_C07 (scFv, V domains shown) VH: EVQLVESGGGLVRPGGSLRLSCAASGFTFSSYAMSWVRQAPGKGLEWVSAISGSGGSTYYADSVKGRFTISRDNTKNSLYLQMTSLRADDTAFYYCVKDFGPGYGTGWFDYWGPGTLVTVSS VL: AVNWYQQLPGKAPKLLIYAAVGCPRILMRCKQDSDCLAGCVCGPNGFCGSASGVSDRFSGSKSGTSASLAISGLRSEDEADYYCASWDDSLRGYVFGTGTKVTVLG | 153000 | 247000 | 276000 | 43300 FU | –
19 | KB_A12_B-gal_H02 (scFv, V domains shown) VH: EVQLVESGGGLVRPGGSLRLSCAASGFTFSSYAMSWVRQAPGKGLEWVSAISGSGGSTYYADSVKGRFTISRDNTKNSLYLQMTSLRADDTAFYYCVKDFGPGYGTGWFDYWGPGTLVTVSS VL: AVNWYQQLPGKAPKLLIYAAGRCEQTSVIRRHCKQDSDCLAGCVCGPNGFCGANSGVSDRFSAAKSGTSASLAINGLRSEDEADYYCAAWDDSLNGYVFGTGTKLTVLG | – | – | – | – | 501000
20 | KB_A12_B-gal_E04 (scFv, V domains shown) VH: EVQLVESGGGLVRPGGSLRLSCAASGFTFSSYAMSWVRQAPGKGLEWVSAISGSGGSTYYADSVKGRFTISRDNTKNSLYLQMTSLRADDTAFYYCVKDFGPGYGTGWFDYWGPGTLVTVSS VL: AVNWYQQLPGKAPKLLIYAAGRCLATTSIRRPCKQDSDCLAGCVCGPNGFCGANSGVSDRFSAAKSGTSASLAINGLRSEDEADYYCAAWDDSLNGYVFGTGTKLTVLG | – | – | – | – | 523000
